In IntAct's records for PubMed 10648618:

B1: Carbon catabolite-derepressing protein kinase (Saccharomyces cerevisiae), P06782 (parent)
chain: MSSNNNTNTAPANANSSHHHHHHHHHHHHHGHGGSNSTLNNPKSSLADGAHIGNYQIVKTLGEGSFGKVKLAYHTTTGQKVALKIINKKVLAKSDMQGRIEREISYLRLLRHPHIIKLYDVIKSKDEIIMVIEYAGNELFDYIVQRDKMSEQEARRFFQQIISAVEYCHRHKIVHRDLKPENLLLDEHLNVKIADFGLSNIMTDGNFLKTSCGSPNYAAPEVISGKLYAGPEVDVWSCGVILYVMLCRRLPFDDESIPVLFKNISNGVYTLPKFLSPGAAGLIKRMLIVNPLNRISIHEIMQDDWFKVDLPEYLLPPDLKPHPEEENENNDSKKDGSSPDNDEIDDNLVNILSSTMGYEKDEIYESLESSEDTPAFNEIRDAYMLIKENKSLIKDMKANKSVSDELDTFLSQSPPTFQQQSKSHQKSQVDHETAKQHARRMASAITQQRTYHQSPFMDQYKEEDSTVSILPTSLPQIHRANMLAQGSPAASKISPLVTKKSKTRWHFGIRSRSYPLDVMGEIYIALKNLGAEWAKPSEEDLWTIKLRWKYDIGNKTNTNEKIPDLMKMVIQLFQIETNNYLVDFKFDGWESSYGDDTTVSNISEDEMSTFSAYPFLHLTTKLIMELAVNSQSN
partner: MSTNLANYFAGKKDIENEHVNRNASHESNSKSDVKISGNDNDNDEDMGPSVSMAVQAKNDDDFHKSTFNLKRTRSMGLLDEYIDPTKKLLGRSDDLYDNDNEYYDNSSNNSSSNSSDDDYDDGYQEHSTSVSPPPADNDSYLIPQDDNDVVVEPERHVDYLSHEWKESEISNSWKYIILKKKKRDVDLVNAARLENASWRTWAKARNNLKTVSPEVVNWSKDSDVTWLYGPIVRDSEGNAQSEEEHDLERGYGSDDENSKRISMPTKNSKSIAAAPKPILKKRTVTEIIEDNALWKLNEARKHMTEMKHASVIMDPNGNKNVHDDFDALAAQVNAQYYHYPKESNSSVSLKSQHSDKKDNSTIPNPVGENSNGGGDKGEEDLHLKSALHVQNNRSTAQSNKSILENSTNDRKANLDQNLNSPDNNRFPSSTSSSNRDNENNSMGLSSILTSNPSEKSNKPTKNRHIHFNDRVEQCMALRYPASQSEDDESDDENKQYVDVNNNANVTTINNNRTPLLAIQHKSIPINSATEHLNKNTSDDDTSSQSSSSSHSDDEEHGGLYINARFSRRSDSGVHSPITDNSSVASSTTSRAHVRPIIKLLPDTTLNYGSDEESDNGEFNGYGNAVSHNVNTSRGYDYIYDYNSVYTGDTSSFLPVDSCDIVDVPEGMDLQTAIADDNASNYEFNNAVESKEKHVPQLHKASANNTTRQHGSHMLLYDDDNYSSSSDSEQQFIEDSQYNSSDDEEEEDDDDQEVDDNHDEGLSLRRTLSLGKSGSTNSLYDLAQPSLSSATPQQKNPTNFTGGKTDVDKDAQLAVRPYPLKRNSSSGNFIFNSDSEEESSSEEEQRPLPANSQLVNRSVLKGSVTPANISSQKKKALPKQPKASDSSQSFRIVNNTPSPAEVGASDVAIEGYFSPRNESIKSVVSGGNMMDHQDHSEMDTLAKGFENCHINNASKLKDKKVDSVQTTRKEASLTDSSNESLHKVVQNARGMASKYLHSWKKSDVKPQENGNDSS

Variants of: B1
Conditions: with reg1_yeast REG1, Q00816

Row | Variant | effect of a mutation on the interaction
1 | K84R | with no effect

Variants of: B1
Conditions: with reg1_yeast REG1, Q00816
Remark: another data set of the same source

Row | Variant | effect of a mutation on the interaction
2 | K84R | increasing interaction strength
